Experimental data from the DeepSol protein solubility set.

Assay: soluble on expression in E. coli; label from the status in PepcDB or PDB records

Row | Sequence | soluble on expression in E. coli
1 | MDLGSFGRIPPQNIEAEQSVLGAILLDKEVLSSVTEIISSQDFYREDHREIFEAIMDLYEKGEPIDLITVAEQLKVRGSLEAVGGLEYLTNLASLVPTTANAKHYAKIVEEKSILRRLIKASSEIINMGYEAAEEVSYVLDKAEKSIFDVLQKRNTQGFALIKDVLIDTFNRLEELYNNKGYITGIPTGFVDLDYKTAGLQNSDLILIAARPAMGKTSFVLNIAQYAAIHAKVPVAIFSLEMSKEQLVNRMLCCEAMVDSQKMRTGKLEDSDWQKVARALGPLSEAPIYIDDTPGLSVAEIRAKCRRLKLEKNLGLVVIDYLQLMQGRGKSESRQQEISEISRSLKILAKEINVPVLTLSQLSRAPELRSDHRPILSDLRESGAIEQDADIVMFLYRDDYYNPDTEKKNIAEVIIAKHRNGSTGTVELAWLGQYTKFANLEKYRQ | not soluble
2 | MDLLERLGLGGRRVLILHHDDLGLTHAQNGAYQALGLPTGSVMVPGAWASGVKGEDLGVHLVLTSEWPAPRMRPLTEGESLRDEAGYFPESLEALWRKARAEEVERELKAQIQAAAKLFSPTHLDAHQGAVLRPDLAEVYLRLAEAYRLVPLVPESLEGLGVPPPFLPELERLLYETPFPQVRFLDPYGLPPEERLGFYLDLAHLPPGLYYLVHHSALPTPEGRALPDWPTREADYFALSHPEVRRVLAEFHPLTWRAVREALF | soluble
3 | MDLRRFITLKTVVEEGSFLRASQKLCCTQSTVTFHIQQLEQEFSVQLFEKIGRRMCLTREGKKLLPHIYELTRVMDTLREAAKKESDPDGELRVVSGETLLSYRMPQVLQRFRQRAPKVRLSLQSLNCYVIRDALLNDEADVGVFYRVGNDDALNRRELGEQSLVLVASPQIADVDFTEPGRHNACSFIINEPQCVFRQIFESTLRQRRITVENTIELISIESIKRCVAANIGVSYLPRFAVAKELECGELIELPFGEQSQTITAMCAHHAGKAVSPAMHTFIQCVEESFVAG | soluble
4 | MDLVDPLAEPCAVCGDKSTGTHYGVISCNGCKGFFRRTVLRDQKFTCRFNKRCVIDKNFRCACRYCRFQKCVQVGMKREAIQFERDPVGSPTSGASLNGTPFKKDRSPGYENGNSNGVGSNGMGQENMRTVPQSSSVIDALMEMEARVNQEMCNRYRRSQIFANGSGGSNGNDTDIQQGSDSGASAFAPPNRPCTTEVDLNEISRTTLLLMVEWAKTINPFMDLSMEDKIILLKNYAPQHLILMPAFRSPDTTRVCLFNNTYMTRDNNTDLNGFAAFKTSNITPRVLDEIVWPMRQLQMREQEFVCLKALAFLHPEAKGLSNSSQIMIRDARNRVLKALYAFILDQMPDDAPTRYGNILLLAPALKALTQLLIENMTLTKFFGLAEVDSLLSEFILDDINDHSTAPVSLQQHLSSPTTLPTNGVSPLNPAGSVGSVSSVSGITPTGMLSATLAAPLAIHPLQSQDSILNSEQNNHML | soluble
5 | MDLYAVWGNPIAQSKSPLIQNKLAAQTHQTMEYIAKLGDLDAFEQQLLAFFEEGAKGCNITSPFKERAYQLADEYSQRAKLAEACNTLKKLDDGKLYADNTDGIGLVTDLQRLNWLRPNQHVLILGAGGATKGVLLPLLQAQQNIVLANRTFSKTKELAERFQPYGNIQAVSMDSIPLQTYDLVINATSAGLSGGTASVDAEILKLGSAFYDMQYAKGTDTPFIALCKSLGLTNVSDGFGMLVAQAAHSFHLWRGVMPDFVSVYEQLKKAMLLEHHHHHH | soluble
6 | MDMMMDKQEIKREYIEQEGHFETKSRRRELHIEILSEQTKSDIRNSKLVVMN | soluble
7 | MDMNFFKHDAFSATTMMKAIENYEFQPGLISSLNLFEEVETSTTVVGIERRDNTLSLIQTSERGAPLVEGDRDGRNLRFFKTTRIAKSDTVKSEEIQNRREFGTEDQLETAMKYIARKQKKLISEIELTWENMQLGAVQGVVLDADGSVIVDWYKEWEIAPPKPIDFKLNNETTNVADHVDQVIMKMIEASKGAFSDRSRIIGLCGNEFFSKLKNHKTIRETYLNTALAQTLNSAGGVATPSAIGSGSFGSFDFAGVTFINYRSIHNYNVSAKAGTKRAIGIKPDECQFLPANAPGVFQKTFAPGESLDFANTVGKPLYTMLIVDNDRNAWVKPEVYSYPLYICTRPEMLFKAVSGGK | not soluble
8 | MDNEKLIREARRMEDVQQLKMQIPKPVDKKPRPPPSENNLKLISCEETCMDETLKNSSKPRMIYNKQLGRAESIDFDVPSLSYESSTFKKSNNSSGGALVLDNHYLINNDDGTVKKLPMKVYVKQRLEDGSLDVQLVFFDENSQKVMDISMLVNGKKIRNVQFCGKDGKLVN | not soluble
9 | MDNHAEAHWQNGWLQSIRHTPSPNFSPRETGETVSLIVLHNISLPPFEYGTDAVEKLFANRLDPDGHPFFSLIHTLRVSSHFLIKRDGETVQFVSCDNMAYHAGVSSFGGREKCNAFSIGIELEGCDFEPFAEAQYRSLEALLDAICRHYPVTAVTGHQDIAPGRKTDPGHFFDWRRIREKGFLVDRNAV | not soluble
10 | MDNVVDRHVFYISDGTAITAEVLGHAVMSQFPVTISSITLPFVENESRARAVKDQIDAIYQQTGVRPLVFYSIVLPEIRAIILQSEGFCQDIVQALVAPLQQEMKLDPTPIAHRTHGLNPGNLNKYDARIAAIDYTLAHDDGISLRNLDQAQVILLGVSRCGKTPTSLYLAMQFGIRAANYPFIADDMDNLTLPTSLKPLQHKLFGLTIDPERLAAIREERRENSRYASLRQCRMEVAEVEALYRKNQIPCLNSTNYSVEEIATKILDIMGLNRRMYLEHHHHHH | soluble
11 | MDNYEKVRVVGRGAFGVCWLCRGKNDASHQKVIIKLINTHGMTEKEENSIQSEVNLLKKVQHPLIIGYIDSFIMDNQLGIVMQYAEGGTLERLINDQRAIKDSNMREYFPEKTVLDYFTQILIALNHMHQKNIVHRDLKPQNILMNRRKTVLKLSDFGISKELGTKSAASTVIGTPNYLSPEICESRPYNQKSDMWSLGCVLYELLQLERAFDGENLPAIVMKITRSKQNPLGDHVSNDVKMLVENLLKTHTDKRPDVSQLLSDPLVLPYLISIHCDLGRIEPPPTDKRKPSASLSSRLRTYPTQSTLRPYSLSSNAPTTHLTQLTPMPSHIDSGFFSSGRTSNQRTQSRSQVHSKY | soluble
12 | MDPACASVDNSKSDPLTDSYPQKYRYSFHRNCQRIMLGVNLKRKNSHYTKGATMTATHNHYLAVLGEDFVAQQYANEGYDITARNVSFSVGEIDIIATSPQGEVVFIEVKTRSSSLMDAAEAVTPTKMRKIHRAASKWLQGKPFADIRFDVVAVHVDEYGELDMTRYQGVEHGAC | not soluble
13 | MDPAKVNTVDEDIKFKEVPGITNILLLSSDARPGEDVSRSDSIMILTIDNINKKLKVTSLMRDMLVKIDGHGEEKLNHAFAYGGPTKTIETIQNNFGIKLNNYVIVDFNAFVKVIDAINGIEVTVKDYELDELNKYILDGGGSEEDLLPSPGTYNLNGYQALSYARIRKVGNGEYERTERQRAVLQIALEKVKDMSTVKLVSLLNELFPYVKTNISLGNAMDYGFTALNVGKKCNFEIEQFRVPLDSISKGGIINNKGWVFVIDKVETSKALQEFIFNDNKNYEPDTSNFDSIIEQYFNDYDIKDDTTHPLEHHHHHH | soluble
14 | MDPEALNLEFYDKNGLDNPIHFRCDPKRIGMTLPSPDFSVDDVLELVGGNRMIEVVQVQNQGSVKMSLQEFINFYKTPQEKREVLYNVLSLEFSQTPLEDLVKSPELVRQIDWVGNQWPDALRQRWISFNGRDKKFYNPHHTFPKVQNYCLMSVANCYTDFHIDFSGTSVWYHVLKGRKVFWLIPPTETNFFIYQEFIKTVNDNAFFGKSVEKCHVAILEPGDTMLIPSGWIHAVYTPDDSLVFGGNFLHSQSCKTQLRVYQVENKLNITRKFRLPYNEELIFYVIADYVKQWTGREYVRPLRIEDAKYDYVGDKWKTAGGHHKKIEYSDYETGVELTNDMIKGDEESTKDEVKVIAMHAENSLFGYPMVSKATFSADTGLEEEADEDEVKYQETKEEMDARRDAEIDELANSNSLIFYKNRTHDFVRNKCVPDHKLPIGHEPPIYFNDDEISRISPRLLDELETLGTYIRRKARVEVAEGICQPASLINTFQTVLKKRRSELTGKKFEFNQIMPRRYTRSTMETGEYDFQPTQEVPQESARRSTRFKVDNFPDELLESEVTDKPIILPQQPSSGPLEYLPAPKDEIKEDINGFEEEFEEEYEGIGQRDDQEEEEYDAEEPEDQEEEEEDEYQAEEYTPTPVTRRSSSRRSGAKNDESEEVSVKKDKKEKMEKVEKDEKRRNSKSKKDKISKEKKKKERERIELESQLDAELRAAHGGGSSKSKKKKPEKPAFVGGLPTSSIQIDPVVSNPYNYDPRMEMMKLGTGQLKSAYRKTKNNVELHIEKNLYKIEPKRGSEEGSQSREQSMEPEHSTPVFTTFDDINEANNDHYDGQKPPTKRAKYEAISVDTYETPSSSRNKEHKEYRPSPNAAPTPSPSHHQKPKLSSPAMVSSTNEYQLRKHMSSERRSSDAGSAMKKGVYMPAMSRQDKMIAEGASAPSSRHSSISSERRPSFIPDFNSSRNSSIDTPYTPTTVTPSRSSWLPNTSSINRHSIEDDSPIDVVNDSLSPINIASSPTYPTAITPPPVTLSDLKKDMSNGRKSHSQHHDDGHKHKIPSKEAIAELKLLVGKLKAINDS | not soluble
15 | MDPLDRLIQLANLQGRLDQRCQLQGSWALEHPQAVPGEATFHIVMAGTCYCEFLDGGRLDLHPGDLILLPRGTPHLLRSDSPAQPCEPTVEHRGSIPLYQLNGPGEALDMLCGSYRYHAGASLFGALPERLLVHMDESTQQPLRALIGLMREEAESTRSGARSIIDALATALFALALRAYLDRQPLGDGLFGLLGDARLGRALRAMLERPEHAWTLEQLAQQAAMSRASFVRAFSALGGTSPWNLLTRIRMEKARGLLRQTQKSLLDIAAETGYQSEAAFSRNFRQAFGESPGRFRRQADSAR | not soluble
16 | MDQFVNHLSCTALLVGKKASVDGSTMIARNEDASGGINPKRFIVVQPADQPQRYVSTFNGFQLDLPQTPLQYTCTPVADQSHGTWGEAGINSENVAMSATETEFTNTTMLGLDPLEPDGIGEEAMLTVVLPYIHNAREGVERLGELVTKYGTCESNGIAFSDANEIWYFETVGGHHWAAERIPDDRYVLAPNQTGIQEIDFQAPEHYKYSADLKDFAAKYHLNKAKEGFNFRDIFGEDTQADHYYNTPRVWYAQKMLNPEIDQDPESRTMPFSRVPSHLISVEDVAMVLSSHYQATDFDPYGQTGTPETRRRYRPIGMNRNQEMHILQIRPNMPKSHAAIHWLAEGVNIFNSPVPFFANCTTTPENFQYTPIDKSSTDSFYWLNKLIAMVADPLFAEHDWDAEFAVSESRKFGFAAGRAAVAKGDAAFADVKPEDLPAWHDALNAETAATITNDLQYLLHQLVCIRAEKMTPSFEKGGELLEHHHHHH | not soluble
17 | MDQLREIVDPDQPQTLRQQAEGWGKMAELLREYSLLLDERLRLVEHSWTGEAATMYFDEVRRVQEYIEDSAERATANCGLWCVIATMAGIAKHDVSHIHQLWKDLDAATDAVGLGFVAGVFGADEALEDFQRKPFDAASRQIMEVTMSAADESYARMRDFEEFEPPPSVDDSGLELQSVSTPAPPSGTAVAPPSTTVTATPAVPLGPTAPRPVVPSVIGSRPGMMPMARPMMGPGHTVPPVIGQRDGGSAQPGATGRLIGRDGVVRVTPDVDLRDPNASRAHYGGDDVNRGVIKSQNPQRVADEAQFKLEEEVRRLRERAYAHRVETLTADHSQYAIPGIVGDDSAWDTKAHDPGPVAFDVRRLRHRPVVDDWTLAVRRH | not soluble
